Measured values taken from patent US9988424 (DUKE UNIVERSITY, dated 2018).
Where two headings read alike, the source gives them in different places.

Tests used:
Assay in all cases: ELISA, OD405
B.63521_V1V2 Tags [1] = target: T1, B.63521_V1V2 Tags
T1 Env construct: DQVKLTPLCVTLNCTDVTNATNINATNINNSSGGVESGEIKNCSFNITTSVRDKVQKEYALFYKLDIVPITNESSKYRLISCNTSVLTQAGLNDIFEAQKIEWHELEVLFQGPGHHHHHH

Con 6 gp120 [2] = target: Con 6 gp120
B.HXB/BAL gp140CFI [3] = target: T2, B.HXB/BAL gp140CFI (HIV-1, UniProt P04578 33-680)
T2 construct: also called B.HxB/Ba gp140 CFI

G.con gp140CF [4] = target: T3, G.con gp140CF
T3 construct: also called G.con.env03 gp140CF

AE.97CNG2XF gp140CF [5] = target: T4, AE.97CNG2XF gp140CF (HIV-1)
T4 construct: also called E.97CNGX2F gp140CF

SIV CPZ US-1 gp140CF [6] = target: T5, SIV CPZ US-1 gp140CF (SIVcpz)
T5 construct: also called US-1 SIVCPZ gp140CF
T5 chain: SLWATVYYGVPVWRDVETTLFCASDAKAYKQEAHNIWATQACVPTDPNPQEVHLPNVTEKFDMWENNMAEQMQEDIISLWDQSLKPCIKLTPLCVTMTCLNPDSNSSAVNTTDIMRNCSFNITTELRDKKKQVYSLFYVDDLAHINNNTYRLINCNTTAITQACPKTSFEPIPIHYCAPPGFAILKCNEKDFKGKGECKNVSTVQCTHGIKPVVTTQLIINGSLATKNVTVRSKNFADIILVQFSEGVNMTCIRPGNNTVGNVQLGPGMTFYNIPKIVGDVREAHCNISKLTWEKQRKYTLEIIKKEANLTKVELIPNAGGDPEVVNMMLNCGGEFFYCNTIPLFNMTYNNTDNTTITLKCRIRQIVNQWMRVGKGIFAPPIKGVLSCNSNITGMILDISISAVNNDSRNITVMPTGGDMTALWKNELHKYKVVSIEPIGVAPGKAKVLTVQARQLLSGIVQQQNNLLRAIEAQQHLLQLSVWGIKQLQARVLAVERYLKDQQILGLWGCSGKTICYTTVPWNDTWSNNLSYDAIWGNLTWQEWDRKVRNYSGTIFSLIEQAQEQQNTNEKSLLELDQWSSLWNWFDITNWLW

B.Case A2 V1/V2 Tags [7] = target: T6, B.Case A2 V1/V2 Tags
T6 Env construct: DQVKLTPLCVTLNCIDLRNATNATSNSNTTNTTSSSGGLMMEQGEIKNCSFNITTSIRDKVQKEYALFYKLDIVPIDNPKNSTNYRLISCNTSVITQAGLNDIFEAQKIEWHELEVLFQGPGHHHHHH

C.1086 gp140 [8] = target: T7, C.1086 gp140
T7 construct: also called C.1086gp140C

D.9009SA V1V2 Tags [9] = target: T8, D.9009SA V1V2 Tags
T8 Env construct: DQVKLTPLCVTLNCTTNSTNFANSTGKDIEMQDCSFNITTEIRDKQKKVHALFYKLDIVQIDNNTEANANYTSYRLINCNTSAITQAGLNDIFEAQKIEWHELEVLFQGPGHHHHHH

B.040 gp140C [10] = target: B.040 gp140C
A.9004SS V1V2 Tags [11] = target: T9, A.9004SS V1V2 Tags
T9 Env construct: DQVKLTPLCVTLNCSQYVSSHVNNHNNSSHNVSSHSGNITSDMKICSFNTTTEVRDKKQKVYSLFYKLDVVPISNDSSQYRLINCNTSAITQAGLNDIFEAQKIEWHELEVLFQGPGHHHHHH

B.con gp140CF [12] = target: T10, B.con gp140CF
T10 construct: also called B.con.env03 gp140CF

B.9021 gp140C = B.9021 gp140C (HIV-1)
B. 684-6 gp140C [13] = target: B. 684-6 gp140C
B. 681-7 gp140C [14] = target: B. 681-7 gp140C
B.63521 gp140C [15] = target: B.63521 gp140C
C.CAP206 gp140CF.12 [16] = target: C.CAP206 gp140CF.12 (HIV-1)
gp70 C.1086 V1/V2 [17] = target: T11, gp70 C.1086 V1/V2 (HIV-1 V1V2 on murine leukemia virus gp70)
T11 construct: also called C.gp70 1086C V1V2; C.1086gp70V1V2
T11 chain: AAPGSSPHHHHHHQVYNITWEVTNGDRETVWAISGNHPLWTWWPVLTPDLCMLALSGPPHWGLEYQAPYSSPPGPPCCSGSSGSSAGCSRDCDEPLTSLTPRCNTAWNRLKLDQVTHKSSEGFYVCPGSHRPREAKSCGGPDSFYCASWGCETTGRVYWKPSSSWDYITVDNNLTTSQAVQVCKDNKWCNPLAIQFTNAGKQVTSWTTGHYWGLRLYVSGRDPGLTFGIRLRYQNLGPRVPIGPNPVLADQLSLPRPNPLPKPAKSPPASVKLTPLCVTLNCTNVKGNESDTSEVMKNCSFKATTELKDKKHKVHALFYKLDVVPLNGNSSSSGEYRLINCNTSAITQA

B.62357 140C [18] = target: T12, B.62357 140C
T12 construct: also called B.62357 gp140C

AE.con gp140CF [19] = target: T13, AE.con gp140CF
T13 construct: also called AE.con.env03 gp140CF

B.63521_V1V2 Tags [20] = target: T1, B.63521_V1V2 Tags
Con 6 gp120 [21] = target: Con 6 gp120; remark: listed apart in the source
B.HXB/BAL gp140CFI [22] = target: T2, B.HXB/BAL gp140CFI; remark: listed apart in the source
G.con gp140CF [23] = target: T3, G.con gp140CF; remark: listed apart in the source
AE.97CNG2XF gp140CF [24] = target: T4, AE.97CNG2XF gp140CF; remark: listed apart in the source
SIV CPZ US-1 gp140CF [25] = target: T5, SIV CPZ US-1 gp140CF
B.Case A2 V1/V2 Tags [26] = target: T6, B.Case A2 V1/V2 Tags
C.1086 gp140 [27] = target: T7, C.1086 gp140; remark: listed apart in the source
D.9009SA V1V2 Tags [28] = target: T8, D.9009SA V1V2 Tags
B.040 gp140C [29] = target: B.040 gp140C; remark: listed apart in the source
A.9004SS V1V2 Tags [30] = target: T9, A.9004SS V1V2 Tags
B.con gp140CF [31] = target: T10, B.con gp140CF; remark: listed apart in the source
B. 684-6 gp140C [32] = target: B. 684-6 gp140C; remark: listed apart in the source
B. 681-7 gp140C [33] = target: B. 681-7 gp140C; remark: listed apart in the source
B.63521 gp140C [34] = target: B.63521 gp140C; remark: listed apart in the source
C.CAP206 gp140CF.12 [35] = target: C.CAP206 gp140CF.12 (HIV-1); remark: listed apart in the source
gp70 C.1086 V1/V2 [36] = target: T11, gp70 C.1086 V1/V2
B.62357 140C [37] = target: T12, B.62357 140C; remark: listed apart in the source
AE.con gp140CF [38] = target: T13, AE.con gp140CF; remark: listed apart in the source

Measured: binding result

B1: CH01_RUA1 (antibody, V domains shown)
VH: EVQLVESGGGVVRPGGSLRLSCAASGFTFDDYGMSWVRQAPGKGLEWVSGINWNGGSTGYADSVKGRFTISRDNAKNSLYLQMNSLRAEDTALYYCARGTDYTIDDQGIRYQGSGTFWYFDLWGRGTLVTVSS
VL: not shown
notes: also called CH01 UA 1; CH01_UA 1
no binding (tested: 10 ug/ml): B.63521_V1V2 Tags [1] | Con 6 gp120 [2] | B.HXB/BAL gp140CFI [3] | G.con gp140CF [4] | AE.97CNG2XF gp140CF [5] | SIV CPZ US-1 gp140CF [6] | B.Case A2 V1/V2 Tags [7] | C.1086 gp140 [8] | D.9009SA V1V2 Tags [9] | B.040 gp140C [10] | A.9004SS V1V2 Tags [11] | B.con gp140CF [12] | B.9021 gp140C | B. 684-6 gp140C [13] | B. 681-7 gp140C [14] | B.63521 gp140C [15] | C.CAP206 gp140CF.12 [16] | gp70 C.1086 V1/V2 [17] | B.62357 140C [18] | AE.con gp140CF [19]

B2: CH01_RUA2 (antibody, V domains shown)
VH: EVQLVESGGGVVRPGGSLRLSCAASGFTFDDYGMSWVRQAPGKGLEWVSGINWNGGSTGYADSVKGRFTISRDNAKNSLYLQMNSLRAEDTALYYCARGTDYTIDDQGILYQGSGTFWYFDLWGRGTLVTVSS
VL: not shown
notes: also called CH01 UA 2; CH01_UA 2
no binding (tested: 10 ug/ml): B.63521_V1V2 Tags [20] | Con 6 gp120 [21] | B.HXB/BAL gp140CFI [22] | G.con gp140CF [23] | AE.97CNG2XF gp140CF [24] | SIV CPZ US-1 gp140CF [25] | B.Case A2 V1/V2 Tags [26] | C.1086 gp140 [27] | D.9009SA V1V2 Tags [28] | B.040 gp140C [29] | A.9004SS V1V2 Tags [30] | B.con gp140CF [31] | B. 684-6 gp140C [32] | B. 681-7 gp140C [33] | B.63521 gp140C [34] | C.CAP206 gp140CF.12 [35] | gp70 C.1086 V1/V2 [36] | B.62357 140C [37] | AE.con gp140CF [38]
